Measured values: patent US20030119169A1
No end group written: not given here.

Target: T1, CPP32, bacterially expressed recombinant active enzyme (human), P42574
T1 chain: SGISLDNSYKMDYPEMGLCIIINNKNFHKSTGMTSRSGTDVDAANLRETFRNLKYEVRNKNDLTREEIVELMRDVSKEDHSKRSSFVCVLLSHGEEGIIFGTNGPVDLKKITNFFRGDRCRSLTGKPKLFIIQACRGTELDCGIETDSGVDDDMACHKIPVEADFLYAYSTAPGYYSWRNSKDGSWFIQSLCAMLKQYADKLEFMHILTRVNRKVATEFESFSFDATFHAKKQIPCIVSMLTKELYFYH
Experiment: inhibition of hydrolysis of 10 µM DEVD-AMC, continuous fluorometric assay, bacterial lysate, 30 min preincubation
Details: remark: other sources report otherwise

Binder: YVAD-aldehyde [YVAD aldehyde]
- Ki: 8.5 µM
